Test results reported in patent US20020127702A1 (University of California, published 2002).

B1: hCdc5 carboxyl terminal domain (amino acids 491-802), His6 fusion (other)
chain: EIVLPENAEKELEEREIDDTYIEDAADVDARKQAIRDAERVKEMKRMHKAVQKDLPRPSEVNTEILRPLNVEPPLTDLQKSEELIKKEMITMLHYDLLHHPYEPSGNKKGKTVGFGTNNSEHITYLEHNPYEKFSKEELKKAQDVLVQEMEVVKQGMSHGELSSEAYNQVWEECYSQVLYLPGQSRYTRANLASKKDRIESLEKRLEINRGHMTTEAKRAAKMEKKMKILLGGYQSRAMGLMKQLNDLWDQIEQAHLELRTFEELKKHEDSAIPRRLECLKEDVQRQQEREKELQHRYADLLLEKETLKSKF
notes: Expressed and purified in E. coli as a His6 fusion; not shown: His6 tag
B2: hCdc5 central domain (amino acids 365-501), His6 fusion (other)
chain: EAQNLMALTNVDTPLKGGLNTPLHESDFSGVTPQRQVVQTPNTVLSTPFRTPSNGAEGLTPRSGTTPKPVINSTPGRTPLRDKLNINPEDGMADYSDPSYVKQMERESREHLRLGLLGLPAPKNDFEIVLPENAEKE
notes: as for B1
B3: hCdc5 putative nuclear localization domain (amino acids 205-358), His6 fusion (other)
chain: KRGVDYNAEIPFEKKPALGFYDTSEENYQALDADFRKLRQQDLDGELRSEKEGRDRKKDKQHLKRKKESDLPSAILQTSGVSEFTKKRSKLVLPAPQISDAELQEVVKVGQASEIARQTAEESGITNSASSTLLSEYNVTNNSVALRTPRTPAS
notes: as for B1
B4: hCdc5 DNA binding domain (amino acids 1-120), His6 fusion (other)
chain: MPRIMIKGGVWRNTEDEILKAAVMKYGKNQWSRIASLLHRKSAKQCKARWYEWLDPSIKKTEWSREEEEKLLHLAKLMPTQWRTIAPIIGRTAAQCLEHYEFLLDKAAQRDNEEETTDDP
notes: Expressed and purified in E. coli as a His6 fusion; also called helix-turn-helix domain; not shown: His6 tag

Legend:
[1] = molecular target: the molecule itself; assay: glutaraldehyde cross-linking of purified His6 fusion
[2] = molecular target: B4; assay: glutaraldehyde cross-linking of purified His6 fusions
[3] = molecular target: B3; assay: as above
[4] = molecular target: B2; assay: as above
[5] = molecular target: the molecule itself; assay: glutaraldehyde cross-linking of purified His6 fusion, SDS-PAGE and anti-His immunoblot

B1: no binding [1]; no binding [2]; no binding [3]. B1: no binding [4].

B2: no binding [1]; no binding [3].

B3: binds [5].

B4: no binding [3]; no binding [4]; binds [5].
